Experimental data as given in the DeepSol protein solubility set.

Assay: soluble on expression in E. coli; label from the status in PepcDB or PDB records

| Sequence | soluble on expression in E. coli |
| --- | --- |
| MVSLPVVLIADKLAPSTVAALGDQVEVRWVDGPDRDKLLAAVPEADALLVRSATTVDAEVLAAAPKLKIVARAGVGLDNVDVDAATARGVLVVNAPTSNIHSAAEHALALLLAASRQIPAADASLREHTWKRSSFSGTEIFGKTVGVVGLGRIGQLVAQRIAAFGAYVVAYDPYVSPARAAQLGIELLSLDDLLARADFISVHLPKTPETAGLIDKEALAKTKPGVIIVNAARGGLVDEAALADAITGGHVRAAGLDVFATEPCTDSPLFELAQVVVTPHLGASTAEAQDRAGTDVAESVRLALAGEFVPDAVNVGGGVVNEEVAPWLDLVRKLGVLAGVLSDELPVSLSVQVRGELAAEEVEVLRLSALRGLFSAVIEDAVTFVNAPALAAERGVTAEICKASESPNHRSVVDVRAVGADGSVVTVSGTLYGPQLSQKIVQINGRHFDLRAQGINLIIHYVDRPGALGKIGTLLGTAGVNIQAAQLSEDAEGPGATILLRLDQDVPDDVRTAIAAAVDAYKLEVVDLS | soluble |
| MSSITKSRSTKKLSQVIVEQLIETIQSGEFKIGEKIPTELELIEQFDVSRSVIREAITELRSLGFVETRHGIGTFVKEQNIEQNFLLSNASLETINDIVALLELRISLESEAVFLASERRKNKHLEKMKIALNDFEAHISSGENDGTVKADYDFHIAIAEASGNQYFVDFLKYLGEKIIPRARVKSIEQSPENREEYLKTVHHDHVNIYNAILDQDGLLARQMMRAHLSKSIKKFKQ | not soluble |
| MSLLRAIIVDNEEPATQILQMLLEKTGQIRVVGTFLRAADALSSLRLTKPDVAFLDIEIPDTSGLELANHILAMDSDVEIIFVTAYDHYALHAFRVNALDYLLKPLLPEDVERAVRRLIKRKGLAKDSAPESPLGANIHYFGKFSVYGPASKKPVKWRTSKAEELFAYLVQNLEKEVPKWRICEALWPEYHSEKVDIQLHTTVYKLKKVLTAANIPFDLSFSNGCYWLSLPQAAIDKVEFDAHIASSVPVNQSTIARCEHALSLYTGDYLEENGYLWSLALKAEYGQKFYKLASSVVNFYMTQGDWVRAEKILRSILERCPLDETVHEMLLTCYFTQKDRTAFITHYHTVRKLFQAELGLEPGKSIQTLYHSLLKRMDEGHHHHHH | soluble |
| MTSITAIFFDLDGTLVDSSIGIHNAFTYTFKELGVPSPDAKTIRGFMGPPLESSFATCLSKDQISEAVQIYRSYYKAKGIYEAQLFPQIIDLLEELSSSYPLYITTTKDTSTAQDMAKNLEIHHFFDGIYGSSPEAPHKADVIHQALQTHQLAPEQAIIIGDTKFDMLGARETGIQKLAITWGFGEQADLLNYQPDYIAHKPLEVLAYFQ | soluble |
| MKYWLYTSLFLALIFSFRSYANSDIWILIDTLEQRLSVMRGDKAQLAFNNIAIGRYGASSSRMKGDNQTPLGSFQISWIKQHHRYYRFFGVDFPNQEAADLALAEKRISRQAWLSITKAIESSRLPPQDTPLGGYIGIHGIGRGDRTVHARFNWTNGCVALTNAQIDELSSWIKIGTKVVIR | not soluble |
| GSFTMADLDDIKDGKDFRTDQPQKNIPFTLKGCGALDWGMQSRLSRIFNPKTGKTVMLAFDHGYFQGPTTGLERIDINIAPLFEHADVLMCTRGILRSVVPPATNRPVVLRASGANSILAELSNEAVALSMDDAVRLNSCAVAAQVYIGSEYEHQSIKNIIQLVDAGMKVGMPTMAVTGVGKDMVRDQRYFSLATRIAAEMGAQIIKTYYVEKGFERIVAGCPVPIVIAGGKKLPEREALEMCWQAIDQGASGVDMGRNIFQSDHPVAMMKAVQAVVHHNETADRAYELYLSEKQ | soluble |
| MQDADKLPHTKVTLVAPPQVHPHEQATKSGPKVVEFTMTIEEKKMVIDDKGTTLQAMTFNGSMPGPTLVVHEGDYVQLTLVNPATNAMPHNVDFHGATGALGGAKLTNVNPGEQATLRFKADRSGTFVYHCAPEGMVPWHVVSGMSGTLMVLPRDGLKDPQGKPLHYDRAYTIGEFDLYIPKGPDGKYKDYATLAESYGDTVQVMRTLTPSHIVFNGKVGALTGANALTAKVGETVLLIHSQANRDTRPHLIGGHGDWVWETGKFANPPQRDLETWFIRGGSAGAALYTFKQPGVYAYLNHNLIEAFELGAAGHIKVEGKWNDDLMKQIKAPAPIPR | soluble |
| MSLAVEIACLDLEGVLVPEIWIAFAEKTGIESLRATTRDIPDYDVLMKQRLRILDEHGLKLADIQAVISTLKPLEGAVEFVDWLRERFQVVILSDTFYEFSQPLMRQLGFPTLLCHRLITDETDRVVSYQLRQKDPKRQSVLAFKSLYYRIIAAGDSYNDTTMLGEADAGILFHAPDNVIREFPQFPAVHTFDELKKEFIKASNRELVLEGHHHHHH | soluble |
| EPAHGRQHTPCLFCDRLFASAEETFSHCKLEHQFNIDSMVHKHGLEFYGYIKLINFIRLKNPTVEYMNSIYNPVPWEKDEYLKPVLEDDLLLQFDVEDLYEPVSTPFS | soluble |
| TSRKLNDAANERLAAQQDLRNAATLIVRDARMAGGFGCFNMSEHPATDVIPDTTQQNSPFSLKRNGIDKLIPIAESSNINYQNFFQVGSALIFQYGIDD | not soluble |
| GPGSMAPLPRKALLAITSAHPPFWPDGKRTGLFFSEALHPFNELTAAGFEVDVASETGTFGWDEHSLTQEYLSKEDEKVLHSEHNHFMEKMNKQVFKAGDLAPHDYGLMFVCGGHGALYDFPHAKHLQNIAQDIYKRGGVIGAVCHGPAMLPGIHDENGDSVIKDKTVTGFTTKGEIMIKVIDKMREDHLHTIADMAQTANAEYVPPEDPWDDFCKVDGRIVTGANPQSATNTARDTIKVYEGIVNE | soluble |
| MGSDKIHHHHHHMIIDEISLFILDMDGTLTLEPSSWDYVHRRLGINNHSVTRLYRNRYINYYCFFQSDIKAWLHKYPNLKKEKVVEFLREVPIRHGADELINVLRKNGIRTAVISGGISWLFDIISERSKIDYNFSNEIFTDEYGYIVPEGKVRVIPEEKDLVVRKIQEELGIGKDQTASVGDEMENDRIHRYSKYRFIISKKARDNLIPIPSGDLEDLLRILE | not soluble |
| MRKPILAALTLAGLGLAQEFITIGSGSTTGVYFPVATGIAKLVNDANVGIRANARSTGGSVANINAINAGEFEMALAQNDIAYYAYQGCCIPAFEGKPVKTIRALAALYPEVVHVVARKDAGIRTVADLKGKRVVVGDVGSGTEQNARQILEAYGLTFDDLGQAIRVSASQGIQLMQDKRADALFYTVGLGASAIQQLALTTPIALVAVDLNRIQAIAKKYPFYVGFNIPGGTYKGVDVTTPTVAVQAMLIASERLSEETVYKFMKAVFGNLEAFKKIHPNLERFFGLEKAVKGLPIPLHPGAERFYKEAGVLK | soluble |
| MSLTVWKTLEKTNHSQSEILSQLIEESDAIVVGIGAGMSAADGFTYIGPRFEEAFPDFIAKYQLLDMLQASLYDFEDWEEYWAFQSRFVALNYLDQPVGQAYLDLKDILAKKEYHIITTNADNAFAVADYNLEKVFHIQGEYGLWQCSQHCHQQTYRNDQAIRQMIAQQKDMKIPSNLIPKCPKCDQPFEINKRNEEKGMVEDADFHAQRQRYENFLSQHQNDKVLYLEIGVGHTTPQFIKHPFWRFVSLNENSLFVTLNHKHYRIPQKIRSRSVQLTQHIAELIAEAKKEIIGEGHHHHHH | soluble |
| MGSDKIHHHHHHMEIEIATIGGYEEVGRQMTAVRAGDDIVIFDMGLNLSKVLVHDNVETEKMHSLDLIDMGAIPDDRVMSDLEGDVKAIVPTHGHLDHIGAISKLAHRYDAPIVGSPFTIELVKGEIESEQKFGVENDLVKMEAGGTMEIGDRCELEFVHVTHSIIDAINPVLHTPEGAVVYGLDKRMDHDPVLEDPIDMERFREIGREGEGVLCYIEDCTNAGKKGRTPSESTARRHLKDVLTSVADYDGGIVATTFSSHISRVSSLVEFAKEIGREPILLGRSMERYSGTAERMGRVNFPDDLGMFGHRKSVDRAFKRVMNEGKENFLPIVTGHQGEPQAMLTRMGRGETPYDIEDGDKIIFSASVIPEPTNKGQRYQSEQLLRMQGARIYDDIHVSGHLREEGHYQMLDALQPQHLIPAHQDMKGMAPYAKLAKSQGYKIGRDLHMTENGNTIQLVE | not soluble |
| MPPQKYHCNVCAQDITRSIHIRCVECVDFDLCIPCFTSGASLGTHHPSHPYRIIETNSYPIFDENWGADEELLLIDACETLGLGNWADIADYVGNARTKEECRDHYLKTYIESDCYPLASVELPGPVDRIAFAARKRARIEAFQPPPIIPQKPLASTPQCHEIQGYMPGRLEFDQEYMNEAELPIKDMNFDDDLHESAKHEMQLKLTMLNIYNSRLTRRAVRKQTIFNHNLLDYRRLQANEKRMSKEERNLLNKTKAFARLLTGPDYQKFVNSYHEQITLKKQISDLQEWRQMGLTTLEQGHKYERDKTQKFLLSKASASYDKQLRHVKSFNQTTSAPFQVRDIQKIVPRKPATPTMFSASADRQLLSEDEQALCSKLQIFPKPFLALKFALISASLTSKKPFQKTDAVNLFKHLDANKVEQVYDFFHNARWIGAPT | soluble |
| MFEKWIGLTLLLNSLAYPCQKVTISFKQYENLLHIHQKGCDNEVMCRTLISIALLESSLGLNNRREKSLKDTSYSMFHITLNTAKKFYPTYSKTLLKFKLLNDVGFAIQLAKQILKENFDYYKQKHPNKSVYQLVEMAIGAYNGGMKHNPNGAYVKKFRCIYSQVRYNE | not soluble |
| MSLSFKGFKVVMLILLSTQSYASKLASSIVCDSTIENPCIVQDSKTQFSPVIRYREVASIADVYGGNITGINKFHLSGSEQPSEKGWEAIAESISRKMGAETKKVIVLDLRQESHGYLNGRAITLVSAYNWINLGKSNSQSTLDQENWLAGLRSRKIVNGVLTVPQYVAKQYSQGKSMVVSTVKNEEYYVYKKGFDYYRIFISDHRAPLDSEVDALVALIKNNPEDTWYHVHCRGGKGRTTTVFAMFDMLKNADKVSFEEIIARQASIPPFYNLMVTNREIPELTPYYEQRLQFLIHFYEFARQSLMGYSGTWSEWKKLNEGHHHHHH | soluble |
| MRGSHHHHHHGSNSLSEANTKFMFDLFQQFRKSKENNIFYSPISITSALGMVLLGAKDNTAQQIKKVLHFDQVTENTTGKAATYHVDRSGNVHHQFQKLLTEFNKSTDAYELKIANKLFGEKTYLFLQEYLDAIKKFYQTSVESVDFANAPEESRKKINSWVESQTNEKIKNLIPEGNIGSNTTLVLVNAIYFKGQWEKKFNKEDTKEEKFWPNKNTYKSIQMMRQYTSFHFASLEDVQAKVLEIPYKGKDLSMIVLLPNEIDGLQKLEEKLTAEKLMEWTSLQNMRETRVDLHLPRFKVEESYDLKDTLRTMGMVDIFNGDADLSGMTGSRGLVLSGVLHKAFVEVTEEGAEAAAATAVVGFGSSPTSTNEEFHCNHPFLFFIRQNKTNSILFYGRFSSP | soluble |
| MGSDKIHHHHHHMVIVARCNHNGSNLTEQFPPINDIRSNSRQLVRELGFMGGDFAGTDLPPSSVHALIEIEACPGITAKDLGKLLRLEKSSVSRMLRKLILSGDIVEQTDDVDSRIKRLRLTGQGREKVSGINGFANRQVSGALAQLTATDAHTILEGLRLYAGALGARTGTPASTVDIKQGYRPGIIARITQMHALYYARTSGFGQRFESVVAEGLAAFCNRLENPRNAIWVAMRGQEIIGSVAIDGEDLGADIAHLRWFIVDDGIRGGGVGRRLLATALAFADQAGFAETHLWTFNGLLAARHLYETHGFTCTEEYPGSQWGSEVLEQRFIRPRPE | not soluble |
| MALAGAEVVVKMTPKSVAHVFKKEMSSLHTSLLHLKPSPFQATYLGLEMTIDHLQVVDFKMPKLSYETSASQSHMTFKLLGGSARLLGQYSAVYKTKREGQFEMIFEHFHMSVPVKRTALTKFTVASDECTLEVDESMITMSPVLPEQISAKIKSDLLDQLKEAACSNATQFFSKLNSHLIHFAEATDISQGGHPSHIDVELHFQNPTSEDDTAIHVDVTESVVNAELSKLYSSANTRFIWNDVPEIKELLKSCKTTECRFIEDGDIVSSFFDRPSIRIQSDNTVSLRLPLSTSLTTTNGKELFRIQTEVELNLEDIVLEHPENGEVFWSAKFHIKNIRILQTSSSRNFQKFATRMESWIEEHKLFMENLLNTYIQGSLPVHLRSPLAWTHRVHARPIFSTSSLSFHVHPHFSPSLRVLV | not soluble |
